B1: RSPH3 (parent)
chain: QRLEEQERRHREEKERRKKQQWEI
B2: KRT18 (parent)
chain: PQVRDWSHYFKIIEDLRAQIFANT

Variants of: B1
Experiment: protein stability index of a GFP-peptide fusion (GPS, HEK-293T) (PSI 1-6); higher = more stable
Conditions: c terminus: a fixed tail appended
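Also: lentivirally expressed fusions sorted by FACS into six bins by GFP to DsRed ratio, PSI derived from sequencing read proportions per bin multiplied by bin number.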

Protein stability index of substitutions, site by site:
R17: C 4.59, D 4.42, E 5.3, F 4.41, G 4.83, H 4.53, I 3.87, K 4.92, L 5.03, M 4.77, N 4.76, P 4.31, Q 4.82, S 4.72, T 4.62, V 4.56, W 4.02, Y 4.96
K18: A 4.46, C 4.32, D 4.59, E 4.6, F 4.43, G 4.71, H 4.56, I 4.94, L 4.27, M 4.6, N 4.28, P 4.72, Q 4.83, R 3.87, S 4.49, T 4.68, V 4.18, W 4.03, Y 3.59
K19: C 4.9, D 4.98, E 4.98, F 4.02, G 4.33, H 4.36, I 4.08, L 4.59, M 4.79, N 4.59, P 4.62, Q 4.64, R 4.78, S 4.77, T 4.87, V 4.59, W 3.89, Y 4.47
Q20: A 4.34, C 4.77, D 4.94, E 4.8, F 4.19, G 4.65, H 4.16, I 4.6, K 4.22, L 4.35, M 3.86, N 4.56, P 4.68, R 4.12, S 4.8, V 3.64, W 4.36, Y 4.19
Q21: A 4.43, C 4.17, D 5.22, E 5.39, F 4.46, G 4.61, H 4.39, I 4.03, K 4.71, L 4.53, M 4.02, N 4.67, P 4.6, R 4.46, S 3.71, T 4.68, V 4.01, W 4.48, Y 4.52
W22: A 5.13, C 5.21, D 5.52, E 5.75, F 4.97, G 5.48, H 4.97, I 4.38, K 5, L 5.22, M 4.88, N 5.52, P 4.64, Q 5.15, R 5.43, S 5.35, T 5.67, V 5.34, Y 4.88
E23: A 3.51, C 4.03, D 4.91, F 3.42, G 4.46, H 4.39, I 3.6, K 4.42, L 4.21, M 4.2, N 4.19, P 4.26, Q 3.95, R 4.69, S 3.9, T 3.96, V 3.18, W 3.67, Y 4.09
I24: A 5, C 4.48, D 5, E 5.04, F 4.34, G 4.83, H 4.46, K 4.25, L 4.78, M 4.56, N 4.68, P 5, Q 4.39, R 5.14, S 4.76, T 4.3, V 5.01, W 4.51, Y 4.82

Variants of: B2
Experiment: as above
Conditions: c terminus: a fixed tail appended

Protein stability index of substitutions, site by site:
P1: S 2.02
R17: I 2.61, L 1.96
H8: K 2.59
Y9: Q 2.42, W 2.5, S 2.56
I12: Q 2.41, S 2.3
I20: V 2.08, A 2.07
Q2: I 2.92
R4: H 2.25
V3: E 3.61
N23: V 2.08
A18: N 2.8
S7: Y 1.61
I13: F 2.12

From the supplement of paper PMC10567573
